According to PMC10877566:
pKd: −log10 of the molar value.

Experiments:
Assay in all cases: bioluminescence (BRET) titration
[1] = test system: LUMID-2C single-lysine (NL2C-1K-thiazole orange); details: apparent, in base pairs; PBS pH 7.4, 0.1% (w/v) BSA, 5% DMSO, 1 nM sensor, 30 min at room temperature, then NanoGlo substrate 1:1000
[2] = test system: LUMID-2C double-glycine (NL2C-2G-thiazole orange); details: apparent, in base pairs; PBS pH 7.4, 0.1% (w/v) BSA, 5% DMSO, 1 nM sensor, 30 min at room temperature, then NanoGlo substrate 1:1000
[3] = test system: LUMID-1F (NL1F-thiazole orange conjugate); details: apparent, in base pairs; PBS pH 7.4, 0.1% (w/v) BSA, 5% DMSO, 1 nM sensor, 30 min at room temperature, then NanoGlo substrate 1:1000
[4] = test system: LUMID-1C (NL1C-thiazole orange conjugate) C166S;G182C; details: apparent, in base pairs; PBS pH 7.4, 0.1% (w/v) BSA, 5% DMSO, 1 nM sensor, 30 min at room temperature, then NanoGlo substrate 1:1000
Sequence of LUMID-1C (NL1C-thiazole orange conjugate) C166S;G182C (chain, as listed by the source C166S G182C): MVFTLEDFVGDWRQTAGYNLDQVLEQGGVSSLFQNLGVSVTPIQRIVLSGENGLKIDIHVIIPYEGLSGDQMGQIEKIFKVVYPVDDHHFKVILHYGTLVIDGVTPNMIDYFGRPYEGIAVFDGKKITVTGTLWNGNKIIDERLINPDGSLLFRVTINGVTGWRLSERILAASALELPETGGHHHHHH

[5] = test system: LUMID-3C (NL3C-thiazole orange); details: apparent, in base pairs; Hill n not fixed to 1 per Methods; PBS pH 7.4, 0.1% (w/v) BSA, 5% DMSO, 1 nM sensor, 30 min at room temperature, then NanoGlo substrate 1:1000
[6] = test system: LUMID-2C triple-lysine (NL2C-3K-thiazole orange); details: apparent, in base pairs; PBS pH 7.4, 0.1% (w/v) BSA, 5% DMSO, 1 nM sensor, 30 min at room temperature, then NanoGlo substrate 1:1000
[7] = test system: LUMID-2C double-lysine (NL2C-2K-thiazole orange); details: apparent, in base pairs; PBS pH 7.4, 0.1% (w/v) BSA, 5% DMSO, 1 nM sensor, 30 min at room temperature, then NanoGlo substrate 1:1000
[8] = test system: LUMID-2F (NL2F-thiazole orange); details: apparent, in base pairs; Hill n 0.65 per Fig 3 legend; PBS pH 7.4, 0.1% (w/v) BSA, 5% DMSO, 1 nM sensor, 30 min at room temperature, then NanoGlo substrate 1:1000

“sheared salmon sperm dsDNA (~2000 bp fragments)” showed a pKd [1] of 3.85, a pKd [2] of 3.55 and a pKd [3] of 2.39. The pKd [4] was 2.51, the pKd [5] was 5.68 and the pKd [6] was 4.68. For the same substance, the pKd [7] was 4.57 and the pKd [8] was 4.37.
